Experimental data from PMC10770391, “Site-selective chlorination of pyrrolic heterocycles by flavin dependent enzyme PrnC” (Communications Chemistry, 2024).

Substrate: Nc1c(Cl)cccc1-c1cc[nH]c1
Test: purified protein
Format: biochemical, Pseudomonas fluorescens
Conditions: E. coli Fre 2.5 μM, FAD 1 μM, MgCl2 10 mM, NADH 2.5 mM, 20 mM Tris pH 7.4, PrnC 2.5 μM, chlorination

B1: PrnC (NT11-PrnC-6His; native PrnC) (Pseudomonas fluorescens) (protein)
chain: MTQKSPANEHDSNHFDVIILGSGMSGTQMGAILAKQQFRVLIIEESSHPRFTIGESSIPETSLMNRIIADRYGIPELDHITSFYSTQRYVASSTGIKRNFGFVFHKPGQEHDPKEFTQCVIPELPWGPESHYYRQDVDAYLLQAAIKYGCKVHQKTTVTEYHADKDGVAVTTAQGERFTGRYMIDCGGPRAPLATKFKLREEPCRFKTHSRSLYTHMLGVKPFDDIFKVKGQRWRWHEGTLHHMFEGGWLWVIPFNNHPRSTNNLVSVGLQLDPRVYPKTDISAQQEFDEFLARFPSIGAQFRDAVPVRDWVKTDRLQFSSNACVGDRYCLMLHANGFIDPLFSRGLENTAVTIHALAARLIKALRDDDFSPERFEYIERLQQKLLDHNDDFVSCCYTAFSDFRLWDAFHRLWAVGTILGQFRLVQAHARFRASRNEGDLDHLDNDPPYLGYLCADMEEYYQLFNDAKAEVEAVSAGRKPADEAAARIHALIDERDFAKPMFGFGYCITGDKPQLNNSKYSLLPAMRLMYWTQTRAPAEVKKYFDYNPMFALLKAYITTRIGLALKK
notes: N-terminal 11-residue NT11 solubility tag and C-terminal 6His tag, pET-28a(+), expressed in E. coli T7 Express, Ni-NTA purified; dimer by cryo-EM
Km: 15.8 ± 0.7 µM
kcat: 0.00767 s⁻¹
